The subject of data set [1] is Gp59 (cI repressor, phage VP882) (Vibrio phage VP882). Put plainly: cell_activity. Particulars: Pq-lux in E. coli, arabinose induced; direct binding inferred.
For data set [2], the target named is T1, lambda HALO-cI (HIS-HALO-cIlambda) (phage lambda, UniProt P03034 2-237).
T1 construct: also called lambda cI; lambda repressor; not shown: N-terminal HIS-HALO tag and linker from vector pH6HTN
T1 sequence: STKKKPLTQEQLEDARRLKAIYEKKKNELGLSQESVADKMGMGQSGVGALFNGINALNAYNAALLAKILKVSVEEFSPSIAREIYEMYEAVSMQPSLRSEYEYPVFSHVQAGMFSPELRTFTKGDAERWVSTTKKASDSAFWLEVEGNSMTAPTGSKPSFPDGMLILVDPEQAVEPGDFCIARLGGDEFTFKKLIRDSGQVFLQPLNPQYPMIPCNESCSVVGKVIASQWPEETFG
The experiment in a line: confocal microscopy of HALO-cI localization in E. coli with induced orf584.

In data set [3] the target is T1, lambda HALO-cI (HIS-HALO-cIlambda). Put plainly: confocal microscopy of HALO-cI localization in E. coli co-expressing Qtip.

The values that follow come from patent US20220010284A1 (TRUSTEES OF PRINCETON UNIVERSITY, published 2022).

Pq (q/gp62 promoter): the activity (fold repression) in data set [1] is 140.

B1: ORF584 (Qtip-like protein of phage MJ1) (other)
chain: MDLRVSNAKDLLDKFEEKAVQMESISQLLANAPEDLTLATVQGSLSALASIARDAGEAADRLRTISSAEG
notes: also called phage MJ1 orf584; pTetA-orf584
With B1, the binding result in data set [2] is recorded as “no binding”.

B2: Qtip (Gp55 of phage VP882, quorum triggered inactivator of cI protein) (other)
chain: MCDFCSEHIDSLDALQSSLEKGTAIIELLDTALSAGIEVSPRVVSCALSAAHQHLQVSEKINRSLQIGCGSKEVLRLVD
notes: also called phage VP882 Qtip; pTetA-qtip
In the case of B2, the binding result in data set [3] was “no binding”.
